Source: the nanobody polyreactivity screen of Harvey et al. (2022)

Experiment: yeast display, Sf9 membrane polyspecificity reagent, FACS + sequencing; frameworks hold sequencing errors
Method in brief: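 A nanobody's polyreactivity label depends on the gate it was sorted from. Yeast display cells were stained with 10% biotinylated, detergent-solubilized Sf9 membrane reagent for 1 hour at 4 °C, enriched on streptavidin microbeads and sorted by FACS. The low and high (top ~1%) gates were set on anti-HA fluorescence for expression and streptavidin fluorescence for reagent binding.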
With “QVQLVESGGGLVQAGGSLRISCAASGSTSLYYAMGWYSQAPGKEREFVAANTWSGGSTYYADSVKGRFTISRDNAKNSVYLQMNSLQPVDTAVDYWAARSYGYSAGYYWRQGTQVTVSS” the “polyreactivity (PSR sort gate)” value was “high polyreactivity”. For “QVQLVESGGGLVQAGGSLRISCAASGYIFKYAMGWYRQAPGKERELVAAISRRGGSTYYADSVKGRFTISRDNAKNTVYLQMNSLKPEDTEVYYCAARLPGYYGIGDYWGQGTQVTVSS”, the “polyreactivity (PSR sort gate)” value was “high polyreactivity”. For “QVQLVESGGGLVQAGGSLRISCAATGRIFGPYTMGWYRQAPGKERELVARISRRGGSTYYADSVKGRFTISRDNAKNTVYFQMNSLKPEDTAVYYCARSQAVYDGWFAKFGYWGQGTQVTVSS”, the “polyreactivity (PSR sort gate)” value was “high polyreactivity”. For “QVQLVESGGGLVQAGGSLRISCAAYGTIFSDYAMGWYKQAPGKERELVAAISSGGNTNYADSVKGRFTISRDNAKNTVYLQMNSLKPEDTAVYYCAAVYNTTYTLLPEYSDVKYYYWGQGTQVTVSS”, the “polyreactivity (PSR sort gate)” value was “low polyreactivity”. For “QVQLVESGGGLVQAGGSLRISCADSGSIFRRYAMGWYRQAPGKERELVAAISIGGGSTYYADSVKGRFTISRDNAKNTVYLLMTSLKPEDTAVYYCNKVEYDGAYDYWGQGTQVTVSS”, the “polyreactivity (PSR sort gate)” value was “low polyreactivity”. In the case of “QVQLVESGGGLVQAGGSLRISCAPSGIIFGYNVMGRYRQAPGKERELVAAISGSGASTYYADSVKGRFTISRDNAKNTVYLQMNSLKPEDTAVYYCARYRGYWGRYYGVDYGYWGQGTQVTVSS”, the “polyreactivity (PSR sort gate)” value is reported as “high polyreactivity”. In the case of “QVQLVESGGGLVQAGGSLRISCAPSGSTFPHNAMGWYRQAPGKERELVAAISSIGVRTYYADSVKGRFTISRDNAKNTVYLQMNSLKPEDTAVYYCAAEYDGPYTWVEYYYHYGYWGQGTQVTVSS”, the “polyreactivity (PSR sort gate)” value is reported as “high polyreactivity”. For “QVQLVESGGGLVQAGGSLRISCDASGSTLRGYSIGWYRQAPGKERELVAAISRRGSGTYYADSVKGRFTISRDNAKNTVYLQMNSLKPEDTAVYYCNAVNGDYEFGYWGQGTQVTVSS”, the “polyreactivity (PSR sort gate)” value was “high polyreactivity”. In the case of “QVQLVESGGGLVQAGGSLRISFAASGFTFNLYAMGWYRQAPGKERELVAAISWSGGRTYYADSVKGRFTISRDNAKNTVYLQMNSLKPEDTAVYYCNAPYWTSKSRFDYWGQGTQVTVSS”, the “polyreactivity (PSR sort gate)” value is reported as “low polyreactivity”. In the case of “QVQLVESGGGLVQAGGSLRISSAASGRTFATYVMGWYRQAPGKERELVASITRGGSTNYADSVKGRFTISRDNAKNTVYLQMNSLKPEDTAVYYCAASFLATYDYWGLGTQVTVSS”, the “polyreactivity (PSR sort gate)” value is reported as “low polyreactivity”. In the case of “QVQLVESGGGLVQAGGSLRISSAASGSIFGRYAMGWYRQAPGKERELVAAISSGTSTYYADSVKGRFTISRDNAKNTVYLQRNSLIPEDTAVYYCAARRYSVRSGGTGRMYYWGQGTQVTVSS”, the “polyreactivity (PSR sort gate)” value is reported as “high polyreactivity”. In the case of “QVQLVESGGGLVQAGGSLRISSAASGSITPYYTMGWYRQAPGKERELVATITSGGNTYYADSVKGRFTISRDNAQNTVYLQLNSVKPEDTAVYYCAAEGVWGIFDYWGKGTQVTVSS”, the “polyreactivity (PSR sort gate)” value is reported as “low polyreactivity”. In the case of “QVQLVESGGGLVQAGGSLRISWAASGFTFYTYMGWYRQAPGKERELVAAISWSGDSTYYADSVKGRFTISRDNAKNTVYLQMNSLKPEDTAVYYCIADHGGSRYDYWGQGTQVTVSS”, the “polyreactivity (PSR sort gate)” value is reported as “low polyreactivity”. In the case of “QVQLVESGGGLVQAGGSLRKSCAASRGILETNAIGWYRQAPGKERELVAAIDFSAGSTYYADSVKGRFTISRDNAKNTVYLQMNSLKPEDTAVYYCATRLGVLYDYWGHGTQVTVSS”, the “polyreactivity (PSR sort gate)” value is reported as “low polyreactivity”. In the case of “QVQLVESGGGLVQAGGSLRLAVLPPDLPSTLNDMGWYRQAPGKERELVAAITRGGSTNYADSVKGRFTISRDNAKNTVYLEMNSLKPEDTAVYYCAAPYAGWRDGGDYWGQGTQVTVSS”, the “polyreactivity (PSR sort gate)” value is reported as “low polyreactivity”. For “QVQLVESGGGLVQAGGSLRLCCAASGRTFPYYALGWYRQAPGKESELVAGITSNAGSTYYADSVKGRFSISRDNAKNTVYLHRHRLKAEDTAVYYCAKYGRATRGLDNYWGQGTQVTVSS”, the “polyreactivity (PSR sort gate)” value was “high polyreactivity”. In the case of “QVQLVESGGGLVQAGGSLRLFCAASGITSSYYAMLWYRQAPGKERDLVADISQSGGSTYYADSVKGRFTISRDNAKNTVYLQMNSLKPEDTAVYYWAADTYWWSYLYDYWGQGTQVTVSS”, the “polyreactivity (PSR sort gate)” value is reported as “high polyreactivity”. In the case of “QVQLVESGGGLVQAGGSLRLICAASALIFGAYTMGWYIQAPGKERELVAAIRRSGSTYYPDSVKGRFTISRDNAKNTVYLQMNSLKPEDTAVYYGNARIGPGRYTYYRSGYDYWGQGTQVTVSS”, the “polyreactivity (PSR sort gate)” value is reported as “high polyreactivity”. With “QVQLVESGGGLVQAGGSLRLICAASGFIFGGYAMGWYRQAHGKERELVAAISSSGGSTYYADSVKGRFTISRDNAKNTVYLQMNSLKPEDTAVYYCAADRYYYRGRYYGYTREFDYWGQGTQVTVSS” the “polyreactivity (PSR sort gate)” value was “high polyreactivity”. For “QVQLVESGGGLVQAGGSLRLICAASGFIFPVNAMGWYRQAPGKERELVAAITSSGGDTYYADSVKGRFTISRDNAKNTVYLQMNSLKPEDTAVYYFAAEYTQEQEDYDYWGQVTQVTVSS”, the “polyreactivity (PSR sort gate)” value was “low polyreactivity”. For “QVQLVESGGGLVQAGGSLRLICAASGFIFRRNARGWSRPAPGTERELVAAISSSGGSTYYADSVKGRFTISRDNAKNTVYLQMNSLKPEDTAVYYCATVLRVTRVDYWGQGTQVTVSS”, the “polyreactivity (PSR sort gate)” value was “high polyreactivity”. For “QVQLVESGGGLVQAGGSLRLICAASGFIFRSYAMGWYRQAPGKEREFDAGINRRGGSTYYADSVKGRFTISRDNAKNSVYLQMNILKPEDTAVYYCAAVYYNRVDYWGQGTQVTVSS”, the “polyreactivity (PSR sort gate)” value was “high polyreactivity”. In the case of “QVQLVESGGGLVQAGGSLRLICAASGFIFVWYAMGWYRQAPGKERELVAAISRRGGGTYYADSVKGRFTISRDNAKNTVYLQMNSLKPEDTAVYYCAAGSYYRYGYDFNYWGQGTQVTVSS”, the “polyreactivity (PSR sort gate)” value is reported as “high polyreactivity”. For “QVQLVESGGGLVQAGGSLRLICAASGFISSENAMGWYRQAPGKERELVAAISSGGSTNYADSVKGRFTISRDNAKYTVYLQMYSLKPEDTAVYYCNAEAIQAVYYAYEYWGQGTQVTVSS”, the “polyreactivity (PSR sort gate)” value was “low polyreactivity”. With “QVQLVESGGGLVQAGGSLRLICAASGFTFAGYAMGWYRQARGKDRELVAGIRSSGARTYYADSVKGRFTISRDNAKNTVYIQMNSLKPEDTAVYYCAKTDGFYRGYGYWGQGTQVTVSS” the “polyreactivity (PSR sort gate)” value was “low polyreactivity”. For “QVQLVESGGGLVQAGGSLRLICAASGFTFARYAMGWYRQAPGKERELVAAITSAGSTSYADSVKGRFTISRDNAKNTVYLQMNSLKPEDTAVYYCAAPFTVRYNYWGQGTKVTVSS”, the “polyreactivity (PSR sort gate)” value was “high polyreactivity”. For “QVQLVESGGGLVQAGGSLRLICAASGFTFLTYAMGWYRQAPGKERELVAAIDSGDSTKYADSVKGRFTISRDNAKYTVYLQMNSLKPEDTAVYYCNASRRYHVLAPYDYWGQGTQVTVSS”, the “polyreactivity (PSR sort gate)” value was “low polyreactivity”. With “QVQLVESGGGLVQAGGSLRLICAASGFTFRRYAMGWYRQAPGKEREFVAVITWSGTRTYYADSVKGRFTISRDNAKNTVYLQMNSLKPEDTAVYYCAAYITDVAGRAYDYWGQGTQVTVSS” the “polyreactivity (PSR sort gate)” value was “high polyreactivity”. In the case of “QVQLVESGGGLVQAGGSLRLICAASGFTFSQYAMGWYREAPGKERELVAAISWNGGSTYYADSVKGRFTISRDNAKNTVYLQMNSLKPEDTAVYYWNRRWPFVRFYYWGQGTQVTVSS”, the “polyreactivity (PSR sort gate)” value is reported as “high polyreactivity”. In the case of “QVQLVESGGGLVQAGGSLRLICAASGFTFVANAMGWYRQAPGKERELVAVIDWDDGSTYYADSVKGRFTISRDNAKNTVYLQMYSLKPEDTAVYYCARDVYASPRLYTSRYNYWGQGTQVTVSS”, the “polyreactivity (PSR sort gate)” value is reported as “low polyreactivity”. With “QVQLVESGGGLVQAGGSLRLICAASGFTFYKYTMGWYRQAPGKERELVAAISARGGSTYYADSVKGRFTISRDNAKNTVYLQMNSLKPEDTAVYYCAADYWRTYGLGYDYWGQGTQVTVSS” the “polyreactivity (PSR sort gate)” value was “high polyreactivity”. In the case of “QVQLVESGGGLVQAGGSLRLICAASGFTIWFNAMGWYRQAPWKERDLVATIRGSGGTTYYAYSVKGRFTISRDNAKNTVYLQMNSLKPEDTAVYYCAAEGSFRKFDYCGQGTQVTVSS”, the “polyreactivity (PSR sort gate)” value is reported as “low polyreactivity”. With “QVQLVESGGGLVQAGGSLRLICAASGFTIYRYAMGWYRQAPGKERELVATIRRGGSTKYADSVKGRFTISRDNAKNTVYLQMNSLKPEDTAVYYCNARYYAAPDKYYYWGQGTQVTVSS” the “polyreactivity (PSR sort gate)” value was “low polyreactivity”. With “QVQLVESGGGLVQAGGSLRLICAASGFTLADNGMGWYRQAPGKERELVATISGGGSTNYADSVKGRFTISRDNAKNTVYLQMISLKPEDTAVYYCAKEGRYSWYTLSEYDYWGQGTQVTVSS” the “polyreactivity (PSR sort gate)” value was “low polyreactivity”. For “QVQLVESGGGLVQAGGSLRLICAASGFTLTRNAMGWYRQAPGKESELVAAISWSGGTTYYADSVKGRFTISRDNAKNTVYLQMNSLKPEDTAFYYCNTASWRDQYYYWGQVTQVTVSS”, the “polyreactivity (PSR sort gate)” value was “high polyreactivity”. For “QVQLVESGGGLVQAGGSLRLICAASGGIFYVNAMGWYRQAPGKERELVADIRYSGTSTYYADSVKGRFTISRDNAKNTVYLQMNSLKPEDTAVYYCAVDAWDTTLVYEQGAERDSWGQGTQVTVSS”, the “polyreactivity (PSR sort gate)” value was “low polyreactivity”. For “QVQLVESGGGLVQAGGSLRLICAASGIIFAVYARGCYRQAPGKERELVAAISTSGGRTDYADSVKGRFTISRDNAKNTVYLQMNSLKPEDTAVYYCAAEYVGKGTPDDYDYWGQGTQVTVSS”, the “polyreactivity (PSR sort gate)” value was “high polyreactivity”. In the case of “QVQLVESGGGLVQAGGSLRLICAASGIIFGNNAMGRYRQAPGKERELVAAIRWSTGTTYYADSVKGRFTISRDNATNTVYLQMNSLKPEDTAVYYCAARLRREYGYWGQGTQVTVSS”, the “polyreactivity (PSR sort gate)” value is reported as “high polyreactivity”. With “QVQLVESGGGLVQAGGSLRLICAASGIIFRSYAMGWYRQAPGKERELVAGISLSGGSTYYADSVKGRFTISRDNAKNTVYLQMNSLKPEDTAVYYCAARRRYKSGYWGQGTQVTVSS” the “polyreactivity (PSR sort gate)” value was “high polyreactivity”. With “QVQLVESGGGLVQAGGSLRLICAASGIIFRVYAMGWYRQAPGKERELVATITWSGGSTFYADSVKGRFTISRDNAKNTVDLQRNSLKPEDTAVYYCAARGYLRGEQLYVLIRYDYWGQGTQVTVSS” the “polyreactivity (PSR sort gate)” value was “low polyreactivity”. In the case of “QVQLVESGGGLVQAGGSLRLICAASGIIFTGYTMGWYRPAPGKERELVAAITWRGGSTYYADSVKGRFTISRDNAKNTVYLQMNSLKPEDTAVYYCAAEGWYSWDDDYWGQGTQVTVSS”, the “polyreactivity (PSR sort gate)” value is reported as “low polyreactivity”.
